From patent US20130078188A1

Target: thrombin (endogenous, in developing blood clots of mice) (mouse) (UniProt P19221)
Experiment: cell-based or functional assay

Chain of hirudin (P01050 whole entry): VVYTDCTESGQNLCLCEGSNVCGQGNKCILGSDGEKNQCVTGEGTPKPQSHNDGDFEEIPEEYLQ

hirudin (from UniProt P01050 1-65)
inhibition of the Cy5/Cy7 ratio increase of … in tail clots of mice: > 90%
